The target in assay [1] is proprietary Ral effector protein of the RalA G-LISA Activation Assay Kit. Kind of assay: ELISA-based assay. The following applies: Absorbances normalized to a no template control (NTC); mean of one experiment performed in triplicate; parent: 1.163. On the technique in general: An ELISA detects its analyte on a solid surface through an enzyme-linked reagent.
The target is the same in assay [2]. The experiment in a line: ELISA; RalA G-LISA Activation Assay Kit (colorimetric); Ral effector protein on the Ral-BP binding plate; purified RALA incubated in the presence or absence of 15 uM GTP for 1.5 h at 25 °C, then 23.75 ng of RALA/GTP mixture applied; absorbances normalized to a no template control; one experiment in triplicate.

Regarding “wild-type RALA (RAS-like small GTPase), 6-His-tagged recombinant protein (from UniProt P11233) D130G”, the response in assay [1] came to 0.281 absorbance.
The same measure, in the same setting: next, “wild-type RALA (RAS-like small GTPase), 6-His-tagged recombinant protein (from UniProt P11233) S157A”: 1.83 absorbance.
The same measure, in the same setting: the result for “wild-type RALA (RAS-like small GTPase), 6-His-tagged recombinant protein (from UniProt P11233) V25L” reads 0.286 absorbance; that for “wild-type RALA (RAS-like small GTPase), 6-His-tagged recombinant protein (from UniProt P11233) V25M”, 0.649 absorbance.

B1: RALA G23D, 6-His-tagged recombinant protein (natural protein)
chain: MAANKPKGQNSLALHKVIMVGSDGVGKSALTLQFMYDEFVEDYEPTKADSYRKKVVLDGEEVQIDILDTAGQEDYAAIRDNYFRSGEGFLCVFSITEMESFAATADFREQILRVKEDENVPFLLVGNKSDLEDKRQVSVEEAKNRAEQWNVNYVETSAKTRANVDKVFFDLMREIRARKMEDSKEKNGKKKRKSLAKRIRERCCIL
With B1, the fold change of binding against wild type in assay [2] amounted to 2 fold.

(Values after publication PMC6291162.)
